These are literature values, as cited in publication PMC10382592.

This data set has as its target Cys23 (UniProt position 23, FIKPTCPYCRR).

On to “Glutaredoxin-1 (GLRX, thioltransferase) (Homo sapiens (inferred from the title of ref 11, 'Thiotransferase in human red blood cells'; the sentence itself refers to mammalian GLRX))”, for which the pKa result is “approximately 3.5”.
